Laboratory results taken from patent US20210205413A1 (Nektar Therapeutics, priority 2018, published 2021).
Where “and” joins values, the source holds several entries; their conditions need not be identical. Identical values can stand only once.

How the values were obtained:
[1] = Single dose pharmacokinetics in rats (IV and SC, LS-2016-2033); type: in vivo, Sprague-Dawley Rats
[2] = test system: MRL/MpJ-Faslpr mice; assay: Mouse model of systemic lupus erythematosus (SLE); type: in vivo
Procedure: The MRL/MpJ-Faslpr mouse model develops an autoimmune disease that reflects pathologies of human SLE, including lymph node enlargement, increased IgG levels, antinuclear antibody production, proteinuria, and kidney failure caused by inflammation of the glomeruli. […] On dosing days, a suitable quantity of test article is withdrawn and diluted with vehicle to arrive at the desired dosing concentration (0.03 mg/kg dose and 0.3 mg/kg dose); dose volume was 5 mL/kg. Animals used for the study are MRL/MpJ-Faslpr mice and MRL/MpJ naive, female mice, aged from 6-8 weeks. Animals are assigned to treatment groups by randomization. Treatment groups are described in Table 13 below. 45 MRL/MpJ-Faslpr mice are randomized into 3 groups (15 each for Groups 2-4) based on body weight and level of protein content in urine before the commencement of the experiment. Animals in Groups 2-4 receive vehicle or test article delivered subcutaneously as described in Table 6. Group 1-MRL/MpJ mice receive the vehicle as a negative control. Three (3) days after the first dose administration on Week 8, 3 mice from Groups 2-4 are humanely sacrificed and blood samples were collected and processed. Body weights are measured twice a week from the commencement of the study and continued throughout. Skin lesion pictures were taken when first observed and then at one week intervals. Urine is obtained the day before dosing (at baseline) and then collected weekly thereafter. Protein levels in the urine are measured using a Siemens Clinitek Status Analyzer. On sacrifice day (3 days after the last dose at the end of Week 20), all mice are anesthetized by intraperitoneal injection of chloral hydrate (50 mg/kg). Blood samples are collected, and centrifuged at 10000 r/min for 10 min to obtain serum samples. The serum is stored at −80° C. until clinical biochemistry testing. Serum samples (100 μl) are analyzed for anti-dsDNA level by ELISA (Mouse Anti-dsDNA IgG-specific ELISA Kit, Alpha Diagnostic International, Cat. No. 5120) and the serum tested for BUN concentration using a Hitachi 7020 Automatic Biochemistry Analyzer. For lymphocyte analysis, blood samples are collected in EDTA-K tubes and tested for CD3/CD4/CD8/Treg/NK/B cell % by flow cytometry. […] This study further elucidates the effect of RUR-IL-2-induced Tregs on control of the physiological immune response and disease progression in a representative animal model of SLE.

[3] = test system: Balb/C mice (OVA food allergy model); assay: Food allergy model (OVA sensitization and oral challenge); type: in vivo
Procedure: (§1) To develop the DTH model, Balb/c mice are sensitized with a subcutaneous administration of a model antigen keyhole limpet hemocyanin (KLH) emulsified in complete and incomplete Freund's adjuvant. […] Inflamed ears are subjected to immunohistochemistry (IHC) to quantify percent of FoxP3+ Treg cells post KLH challenge. The specificity of response is assessed after an additional 3-4 weeks with no treatment by either KLH rechallenge or conducting sensitization and challenge with an unrelated antigen ovalbumin (OVA). […] Post ten days of 2nd sensitization, mice are challenged with OVA eight times orally, every alternative day. […] Severity of allergic response is assessed by clinical scoring within 30-45 min of post 8th challenge. Further, serum mast cell protease 1 (MCPT 1) and OVA specific IgE titers are quantified. The percent Treg is determined by flow cytometry in peripheral blood and in spleen.

[4] = Solution phase stability by HPLC; type: physicochemical; conditions: 5° C.
Procedure: The mobile phase is 0.2M ammonium acetate (pH 5.5) at a volume ratio of 80:20 with acetonitrile. The diluent/formulation buffer contained 10 mM sodium acetate, 200 mM sodium chloride, 2% sucrose, at a pH of 5.0. […] Samples are stable up to 5 days at 5° C. in solution.
(refrigerated), and −20° C. at 1, 3, 5, and 7-day time points by RP-HPLC as previously described.
Differences between the RUR20kD-IL-2 composition solutions are evaluated against a control, freshly prepared RUR20kD-IL-2 composition sample solution.

[5] = test system: Balb/c mice (KLH DTH model); assay: Antigen dependent, T cell-mediated DTH model with KLH rechallenge; type: in vivo
Procedure: as §1

[6] = Single dose pharmacokinetics in monkeys (IV and SC); type: in vivo, Cynomolgus Monkeys
[7] = Sprague-Dawley rats, single IV 0.01 mg/kg, plasma, mean ± SE
[8] = Sprague-Dawley rats, single IV 0.1 mg/kg, plasma, mean ± SE
[9] = Sprague-Dawley rats, single IV 1 mg/kg, plasma, mean ± SE
[10] = Sprague-Dawley rats, single SC 0.01 mg/kg, plasma, mean ± SE
[11] = Sprague-Dawley rats, single SC 0.1 mg/kg, plasma, mean ± SE
[12] = Sprague-Dawley rats, single SC 1 mg/kg, plasma, mean ± SE
[13] = repeat administration over 12 weeks
[14] = cynomolgus monkeys, single IV 0.025 mg/kg, mean of male and female
[15] = cynomolgus monkeys, single SC 0.025 mg/kg, mean of male and female

(1,3-bis(methoxypoly(ethylene glycol)10kDcarbamoyl)-2-propanoxy)-4-butanamide)interleukin-2) [RUR20kD-IL-2]
AUCinf [1, 7]: 17800 ± 1000 ng·h/mL | AUClast [1, 7]: 17800 ± 900 ng·h/mL | CL [1, 7]: 13.4 ± 0.72 mL/day/kg | Half-life [1, 7]: 30 ± 3.84 h | MRTinf [1, 7]: 44.9 ± 5.04 h | Vss [1, 7]: 0.0251 L/kg | AUCinf [1, 8]: 120000 ± 8000 ng·h/mL | AUClast [1, 8]: 120000 ± 8000 ng·h/mL | CL [1, 8]: 20.2 ± 1.4 mL/day/kg | Half-life [1, 8]: 40.1 ± 0.24 h | MRTinf [1, 8]: 52.3 ± 0.96 h | Vss [1, 8]: 0.0441 ± 0.0035 L/kg | AUCinf [1, 9]: 877000 ± 39000 ng·h/mL | AUClast [1, 9]: 870000 ± 35000 ng·h/mL | CL [1, 9]: 27.4 ± 1.2 mL/day/kg | Half-life [1, 9]: 37.4 ± 5.28 h | MRTinf [1, 9]: 45.6 ± 3.84 h | Vss [1, 9]: 0.0526 L/kg | Absolute Bioavailability ([1]; Sprague-Dawley rats, single SC 0.01 mg/kg): 40.2% | AUCinf [1, 10]: 7160 ± 530 ng·h/mL | AUClast [1, 10]: 7120 ± 510 ng·h/mL | Cmax [1, 10]: 95 ± 6 ng/mL | Half-life [1, 10]: 32.4 ± 1.4 h | MRTinf [1, 10]: 64.8 ± 1.4 h | tmax [1, 10]: 31.9 ± 7.92 h | Absolute Bioavailability ([1]; Sprague-Dawley rats, single SC 0.1 mg/kg): 29.8% | AUCinf [1, 11]: 35700 ± 5100 ng·h/mL | AUClast [1, 11]: 35500 ± 5100 ng·h/mL | Cmax [1, 11]: 380 ± 40 ng/mL | Half-life [1, 11]: 46.1 ± 1.9 h | MRTinf [1, 11]: 82.1 ± 6.72 h | tmax [1, 11]: 48 ± 0 h | Absolute Bioavailability ([1]; Sprague-Dawley rats, single SC 1 mg/kg): 46.0% | AUCinf [1, 12]: 404000 ± 79000 ng·h/mL | AUClast [1, 12]: 398000 ± 74000 ng·h/mL | Cmax [1, 12]: 4860 ± 930 ng/mL | Half-life [1, 12]: 30.5 ± 7.68 h | MRTinf [1, 12]: 67.7 ± 3.84 h | tmax [1, 12]: 55.2 ± 7.92 h | Vss relative to species-specific plasma volume ([1]; rats): 1-2 fold | Bioavailability ([1]; rats, SC, range over doses): 29.8-46.0% | tmax ([1]; rats, SC, range over doses): 24 to 55.2 h | half-lives ([1]; rats, intravenous or subcutaneous dosing, range): 1.25 to 2.44 days | Plasma clearance (CL) ([1]; rats, range over doses): 13.4 to 27.4 mL/day/kg | protein levels in urine (biomarker of kidney damage) ([2]; 0.3 mg/kg s.c. twice weekly, week 8 to week 20): nearly the same levels as observed in normal mice | Treg elevation [2, 13]: sustains Treg elevation | blood urea nitrogen [2, 13]: reduces blood urea nitrogen | urine protein levels and kidney histopathology [2, 13]: returns urine protein levels and kidney histopathology to normal | Tregs (flow cytometry, peripheral blood and spleen) ([3]; SC 0.1 mg/kg q3d×3): significant increase in Tregs | levels of MCPT1 and anti-OVA specific IgE titers ([3]; SC 0.1 mg/kg q3d×3): significant decrease in levels of MCPT1 and anti-OVA specific IgE titers | anaphylaxis symptoms (clinical scores) ([3]; SC 0.1 mg/kg q3d×3, repeated oral OVA): efficacious in decreasing the high degree of anaphylaxis symptoms | time samples are stable in solution ([4]; 1.0 mg/mL in formulation buffer): up to 5 days | relative difference of mono-PEG, tetra-PEG and penta-PEG species ([4]; 1.0 mg/mL solution pH 5, RT, −20° C. up to 7 days, RP-HPLC): up to 8% | inflammatory response to KLH rechallenge ([5]; SC 0.003-0.3 mg/kg q3d, day 0 through day 8): suppressed the inflammatory response to KLH rechallenge in a dose dependent manner | FoxP3+ Treg cells in inflamed ears (IHC) ([5]; post KLH challenge): significant infiltration of FoxP3+ Treg cells | durability and specificity of suppressive effect on inflammation ([5]; re-challenge post 3-4 weeks without further administration, same and unrelated antigen (OVA)): durable and antigen-specific | AUCinf [6, 14]: 100000 ng·h/mL | AUClast [6, 14]: 71200 ng·h/mL | Half-life [6, 14]: 310 h | MRTinf [6, 14]: 403 h | Vss [6, 14]: 0.1 L/kg | CL ([6]; cynomolgus monkeys, single IV 0.025 mg/kg, mean of male and female, 0.025 mg/kg): 5.88 mL/day/kg and 6 mL/day/kg | AUCinf [6, 15]: 86000 ng·h/mL | AUClast [6, 15]: 65400 ng·h/mL | Cmax [6, 15]: 250 ng/mL | Half-life [6, 15]: 250 h | MRTinf [6, 15]: 360 h | Vss relative to species-specific plasma volume ([6]; monkeys): 2-4 fold | half-lives ([6]; monkeys, intravenous or subcutaneous dosing, range): 10.4 to 12.9 days
